Measurements reported in publication PMC8396345, “Target Affinity and Structural Analysis for a Selection of Norovirus Aptamers”.

B1: AG3 (ssDNA)
DNA: GCTAGCGAATTCCGTACGAAGGGCGAATTCCACATTGGGCTGCAGCCCGGGGGATCC
B2: SMV19 (ssDNA)
DNA: CACCAGTGTGTTGAGGTTTGAGCACACTGATAGAGTGTCA
B3: SMV21 (ssDNA)
DNA: CCATGTTTTGTAGGTGTAATAGGTCATGTTAGGGTTTCTG
B4: M6-2 (ssDNA)
DNA: TGGGAAGAGGTCCGGTAAATGCAGGGTCAGCCCGGAGAG
B5: M1 (ssDNA)
DNA: TGTTTATGGGGATAAACGTATCTAATTCGTGTACTAATCA
B6: Buf-2 (structured_DNA)
DNA: GAAATTGGGTTCGGGTTTGGGTTGGGATTACTTAGCGATG
B7: Beier (ssDNA)
DNA: GTCTGTAGTAGGGAGGATGGTCCGGGGCCCCGAGACGACGTTATCAGGC

Columns and labels:
[1] = target: T1, norovirus GI.1 VLP (major capsid protein VP1) (Norovirus GI.1, UniProt Q83884 1-530); assay: filter binding; Kd not determined; FRA: 1 nM 32P-aptamer, 0-1500 nM VLP, 60 min, each aptamer's original selection buffer (M1, M6-2, SMV19, SMV21: PBS pH 7.4; others in Table S1, not in material); FRA temperature not stated; pull-down at room temperature; settings: protein: recombinant, chain copies: 180, label: 5'-32P (FRA)
[2] = target: T1, norovirus GI.1 VLP (major capsid …); assay: filter binding; <10% bound at 1500 nM; FRA: 1 nM 32P-aptamer, 0-1500 nM VLP, 60 min, each aptamer's original selection buffer (M1, M6-2, SMV19, SMV21: PBS pH 7.4; others in Table S1, not in material); FRA temperature not stated; pull-down at room temperature; settings: protein: recombinant; chain copies: 180; label: 5'-32P (FRA); B-DNA-like CD

T1 sequence (Q83884 whole entry): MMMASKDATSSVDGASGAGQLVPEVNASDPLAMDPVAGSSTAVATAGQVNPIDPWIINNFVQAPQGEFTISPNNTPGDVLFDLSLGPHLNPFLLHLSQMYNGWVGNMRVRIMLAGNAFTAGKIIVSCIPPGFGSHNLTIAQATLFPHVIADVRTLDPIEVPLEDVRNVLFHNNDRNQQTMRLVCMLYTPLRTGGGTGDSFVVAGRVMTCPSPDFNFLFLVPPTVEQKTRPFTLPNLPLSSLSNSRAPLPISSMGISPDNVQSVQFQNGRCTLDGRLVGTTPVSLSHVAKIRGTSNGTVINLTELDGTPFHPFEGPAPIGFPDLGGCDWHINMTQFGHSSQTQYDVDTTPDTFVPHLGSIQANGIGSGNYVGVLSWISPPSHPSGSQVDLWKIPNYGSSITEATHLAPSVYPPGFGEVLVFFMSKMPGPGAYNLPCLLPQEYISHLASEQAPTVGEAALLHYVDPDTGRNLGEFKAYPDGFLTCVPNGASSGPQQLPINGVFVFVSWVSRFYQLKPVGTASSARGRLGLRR

Row | Binder | binding result ([1]; B-DNA-like CD) | other results
1 | B1 | no binding | 
2 | B2 | no binding | 
3 | B3 | no binding | 
4 | B4 |  | binding result [2]: no binding
5 | B5 |  | binding result [2]: no binding
6 | B6 |  | binding result ([1]; inter- or intramolecular not resolved): no binding
7 | B7 | no binding | 
